In US20110086767A1, “MUTANTS OF GLYCOSIDE HYDROLASES AND USES THEREOF FOR SYNTHESIZING COMPLEX OLIGOSACCHARIDES AND DISACCHARIDE INTERMEDIATES” (Institut Pasteur, priority 2008, published 2011):

Experiments:
Format in all cases: biochemical
[1] = Enzymatic glucosylation of D-GlcpNAc derivatives: α-D-GlcpNAc-OMe; conditions: sucrose:acceptor 1:1 (146 mM); estimated according to peak areas
Procedure: (§1) The mutant F290K and the ASNPwt were tested on other D-GlcNAc derivatives (α-D-GlcpNAc-OMe, β-D-GlcpNAc-OMe, β-D-GlcpNAc-Oallyl and D-GlcNHTCA) used as potential acceptors. The enzymatic reaction was carried out using sucrose as donor and D-GlcNAc derivative as acceptor in a 1:1 ratio (146 mM)
(§2) Efficiency of the glucosylation reaction was evaluated by HPLC analysis of the acceptor reaction product synthesized a Biorad HPLC Carbohydrate Analysis column (HPX-87K column (300×7.8 mm))
(§3) Percentages of glucosylation rates were estimated according to peak areas as no reference was available.

[2] = Kinetics of F290K and ASNPwt in the presence of acceptor α-D-GlcpNAc-OAll
Procedure: (§4) Enzyme assays were carried out in a total volume of 2 mL containing pure enzyme (0.115 mg and 0.106 mg when using ASNPwt and F290K, respectively). Catalytic efficiency (Eff=kcat/KM) of ASNPwt and F290K variant was determined with both sucrose (D=Donor) and α-D-GlcpNAc-OAll (A=Acceptor) as variable substrates. For the determination of the catalytic efficiency for D, A was held constant at 250 mM and D was varied between 0 and 600 mM. For the determination of the catalytic efficiency for A, D was held constant at 250 mM and A was varied between 0 and 250 mM. Experiments were performed until A and D solubility limits were reached. For each experiment, the reaction velocity corresponding to the acceptor glucosylation was determined by the formation of α-D-Glcp-(1→4)-α-D-GlcpNAc-OAll (called Vi(Dp2)), corresponding to the kinetics of the reaction of interest.
(§5) Initial velocities were fitted to the Michaelis-Menten equation using Sigma-Plot. As saturation was not achieved with the mutant, efficiency was calculated by linear regression analysis of the velocity versus substrate concentration plot. Aliquots (200 μL) were removed between 0 and 60 min (at which time product formation was still linear with respect to time), heated at 95° C. for 5 min and centrifuged at 18 000 g for 5 min. The final mixtures were filtered on a 0.22 um membrane and analyzed using HPLC material previously described. […]

[3] = Kinetics of F290K and ASNPwt towards sucrose
Procedure: as §4, with “For the determination of the catalytic efficiency for D, A was held constant at 250 mM and D was varied between 0 and 600 mM.” left out
as §5

[4] = Enzymatic glucosylation of D-GlcpNAc derivatives: β-D-GlcpNAc-OAll; conditions: sucrose:acceptor 1:1 (146 mM); estimated according to peak areas
Procedure: as §1, §2, §3

[5] = Enzymatic glucosylation of D-GlcpNAc derivatives: β-D-GlcpNAc-OMe; conditions: sucrose:acceptor 1:1 (146 mM); estimated according to peak areas
Procedure: as §1, §2, §3

[6] = Enzymatic glucosylation of D-GlcpNAc derivatives: D-GlcNHTCA; conditions: sucrose:acceptor 1:1 (146 mM); estimated according to peak areas
Procedure: as §1, §2, §3

[7] = Glucosylation of α-D-GlcpNAc-OAll by purified F290D, F290K and ASNPwt (146 mM sucrose + 146 mM acceptor)
Procedure: All assays were performed at 30° C. in 50 mM Tris buffer, pH=7.0. For the acceptor reactions, F290D, F290K and ASNPwt (1G5A) were tested on α-D-GlcpNAc-OAll.
Comparison of products synthesized by wild-type and AS variants. Reactions were performed in the presence of 146 mM sucrose alone or supplemented with 146 mM acceptor. The purified wild-type or mutated GST/AS were employed at 0.5 U/mL. The reactions were stopped by heating at 95° C. for 5 min. The final mixture was centrifuged at 18 000 g for 10 min, filtered on 0.22 μm membrane and analyzed by HPLC, as previously described.
Soluble and insoluble oligosaccharides produced during the reaction were identified by HPAEC using a Dionex Carbo-Pack PA100 column at 30° C. Before analysis, the insoluble fraction was solubilized in KOH at a final total sugar concentration of 10 g/kg. Mobile phase (150 mM NaOH) was set at 1 mL/min flow rate with a sodium acetate gradient (going from 6 to 500 mM within 120 min). Detection was performed using a Dionex ED40 module with a gold working electrode and an Ag/AgCl pH reference. Note that α-D-GlcpNAc-OAll (acceptor) and its derivatives are not oxidable products and thus are not detectable by HPAEC. Sucrose, glucose, fructose, α-D-GlcpNAc-OAll (acceptor) and its derivatives (glucosylation products) were quantified by HPLC, as previously described

[8] = purified enzyme, Sucrose=Acceptor=146 mM, compared with ASNPwt

B1: F290K: single mutant F290K of N. polysaccharea amylosucrase 1G5A (protein)
chain: SPNSQYLKTRILDIYTPEQRAGIEKSEDWRQFSRRMDTHFPKLMNELDSVYGNNEALLPMLEMLLAQAWQSYSQRNSSLKDIDIARENNPDWILSNKQVGGVCYVDLFAGDLKGLKDKIPYFQELGLTYLHLMPLFKCPEGKSDGGYAVSSYRDVNPALGTIGDLREVIAALHEAGISAVVDFIFNHTSNEHEWAQRCAAGDPLFDNFYYIFPDRRMPDQYDRTLREIFPDQHPGGFSQLEDGRWVWTTFNSFQWDLNYSNPWVFRAMAGEMLFLANLGVDILRMDAVAKIWKQMGTSCENLPQAHALIRAFNAVMRIAAPAVFFKSEAIVHPDQVVQYIGQDECQIGYNPLQMALLWNTLATREVNLLHQALTYRHNLPEHTAWVNYVRSHDDIGWTFADEDAAYLGISGYDHRQFLNRFFVNRFDGSFARGVPFQYNPSTGDCRVSGTAAALVGLAQDDPHAVDRIKLLYSIALSTGGLPLIYLGDEVGTLNDDDWSQDSNKSDDSRWAHRPRYNEALYAQRNDPSTAAGQIYQDLRHMIAVRQSNPRFDGGRLVTFNTNNKHIIGYIRNNALLAFGNFSEYPQTVTAHTLQAMPFKAHDLIGGKTVSLNQDLTLQPYQVMWLEIA
- glucosylation of acceptor α-D-GlcpNAc-OMe [1]: > 95%
- increase of the efficiency of the mutant compared to ASNPwt [2]: 130 fold
- decrease of kcat/Km in the presence of sucrose alone ([3]; sucrose alone, compared with ASNPwt, linear regression): 40 fold
- saturation with sucrose ([3]; sucrose varied between 0 and 600 mM): could not be saturated
- glucosylation of acceptor β-D-GlcpNAc-OAll [4]: > 95%
- glucosylation of acceptor β-D-GlcpNAc-OMe [5]: 65-70%
- glucosylation of acceptor D-GlcNHTCA [6]: > 95%
- maltooligosaccharide formation on addition of acceptor ([7]; 146 mM sucrose supplemented with 146 mM α-D-GlcpNAc-OAll, t=24 h): totally suppressed
- times more efficient for α-D-GlcpNAc-OAll glucosylation [7, 8]: 10 times
- times more efficient to form α-D-Glcp-(1→4)-D-GlcpNAc-OAll [7, 8]: 20 times
